# Ends that are not written are not given here. * marks the point of attachment. Biotin = O=C1N[C@H]2[C@H](CS[C@H]2CCCCC(=O)*)N1
# T1: FLAG-γ1-COP (N-terminal FLAG-tagged human γ1-COP) (human, UniProt Q9Y678 1-874)
# T1 sequence (looked up): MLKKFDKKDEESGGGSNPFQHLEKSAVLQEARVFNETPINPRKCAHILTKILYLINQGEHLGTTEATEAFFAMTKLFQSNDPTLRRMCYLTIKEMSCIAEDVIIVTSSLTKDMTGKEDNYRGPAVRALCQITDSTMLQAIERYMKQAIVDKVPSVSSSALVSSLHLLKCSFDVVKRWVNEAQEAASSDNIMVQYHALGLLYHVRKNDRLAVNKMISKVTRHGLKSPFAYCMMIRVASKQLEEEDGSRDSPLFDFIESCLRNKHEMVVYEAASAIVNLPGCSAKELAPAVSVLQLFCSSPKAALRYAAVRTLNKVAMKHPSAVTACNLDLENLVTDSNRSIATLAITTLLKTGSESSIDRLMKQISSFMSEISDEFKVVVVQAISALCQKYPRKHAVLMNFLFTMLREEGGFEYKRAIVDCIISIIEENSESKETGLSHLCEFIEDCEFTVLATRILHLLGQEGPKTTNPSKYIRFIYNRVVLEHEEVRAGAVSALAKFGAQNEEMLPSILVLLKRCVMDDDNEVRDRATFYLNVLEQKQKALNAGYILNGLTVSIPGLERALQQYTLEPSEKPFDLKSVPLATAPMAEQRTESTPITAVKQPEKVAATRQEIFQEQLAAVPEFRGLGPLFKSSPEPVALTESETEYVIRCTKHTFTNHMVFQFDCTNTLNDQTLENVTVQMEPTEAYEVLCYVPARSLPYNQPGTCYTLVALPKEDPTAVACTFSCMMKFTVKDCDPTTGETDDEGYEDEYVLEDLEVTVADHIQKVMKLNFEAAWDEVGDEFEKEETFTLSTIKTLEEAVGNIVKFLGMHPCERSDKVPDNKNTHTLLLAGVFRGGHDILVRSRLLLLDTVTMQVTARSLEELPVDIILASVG
# B1: HA-(Δ1–67) L2-3xFLAG (domain or fragment, HPV16, UniProt P03107 68-473, looked up)
# chain: GRTGYIPLGTRPPTATDTLAPVRPPLTVDPVGPSDPSIVSLVEETSFIDAGAPTSVPSIPPDVSGFSITTSTDTTPAILDINNTVTTVTTHNNPTFTDPSVLQPPTPAETGGHFTLSSSTISTHNYEEIPMDTFIVSTNPNTVTSSTPIPGSRPVARLGLYSRTTQQVKVVDPAFVTTPTKLITYDNPAYEGIDVDNTLYFSSNDNSINIAPDPDFLDIVALHRPALTSRRTGIRYSRIGNKQTLRTRSGKSIGAKVHYYYDLSTIDPAEEIELQTITPSTYTTTSHAASPTSINNGLYDIYADDFITDTSTTPVPSVPSTSLSGYIPANTTIPFGGAYNIPLVSGPDIPINITDQAPSLIPIVPGSPQYTIIADAGDFYLHPSYYMLRKRRKRLPYFFSDVSLAA
# How the values were obtained:
# [1] = target: T1, FLAG-γ1-COP (N-terminal FLAG-tagged …); test: co-IP
# [2] = target: T1, FLAG-γ1-COP (N-terminal FLAG-tagged …); test: pull-down
Binder,binding result [1],binding result [2]
B1,binds,
Biotin-TGIRYSRIGNKQTL [biotin-tagged WT HPV16 L2 peptide (residues T299 to L312)],,binds
